Reference: the supplement of paper PMC7125110
± gives the standard error. For some of these results: Fewer inactive variants are shown than the library holds.

B1: glmS ribozyme (parent)
chain: AUAAAAGCGCCAGAACUACAGAAAUGUAGUUGACGAGGAGGAGGUUUAUCGAAUUUUCGGCGGAUGCCUCCAAA

Columns and labels:
Details in all cases: with glucosamine-6-phosphate
[1] = variants of: B1; assay: kcat; higher = faster cleavage; RNA array
Summary of the method: (§1)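 Barcoded ribozyme variants, transcribed in situ by E. coli RNA polymerase on sequenced MiSeq chips, were followed via a hybridised Cy3 probe at 37 °C. Glucosamine-6-phosphate ranged from 40 μM to 10 mM in HEPES/KCl/Mg(OAc)2 buffer. kobs came from decay fits to per-tile medians, and kcat and KM from weighted Michaelis–Menten fits.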

[2] = variants of: B1; assay: self-cleavage kobs at 2500 uM GlcN6P; higher = faster cleavage; RNA array
Summary of the method: as §1

[3] = variants of: B1; assay: self-cleavage kobs at 10000 uM GlcN6P; higher = faster cleavage; RNA array
Summary of the method: as §1

[4] = variants of: B1; assay: self-cleavage kobs at 40 uM GlcN6P; higher = faster cleavage; RNA array
Summary of the method: as §1

[5] = variants of: B1; assay: self-cleavage kobs at 160 uM GlcN6P; higher = faster cleavage; RNA array
Summary of the method: as §1

[6] = variants of: B1; assay: self-cleavage kobs at 640 uM GlcN6P; higher = faster cleavage; RNA array
Summary of the method: as §1

[7] = variants of: B1; assay: KM; higher = weaker cofactor use; RNA array
Summary of the method: as §1

Variant | kcat [1] | self-cleavage kobs at 2500 uM GlcN6P [2] | self-cleavage kobs at 10000 uM GlcN6P [3] | self-cleavage kobs at 40 uM GlcN6P [4] | self-cleavage kobs at 160 uM GlcN6P [5] | self-cleavage kobs at 640 uM GlcN6P [6] | KM [7]
G43A A53G | 8.84e-05 ± 2.5e-05 s⁻¹ | 0.000132 ± 2.8e-05 s⁻¹ | 7.56e-05 ± 8.5e-06 s⁻¹ | – | – | – | –
A42G U46G | 0.017 ± 0.0083 s⁻¹ | 0.0074 ± 0.0015 s⁻¹ | 0.0115 ± 0.0033 s⁻¹ | 0.000254 ± 6.6e-05 s⁻¹ | 0.000694 ± 0.00017 s⁻¹ | 0.00167 ± 0.00038 s⁻¹ | –
A42G U46C | 0.00159 ± 0.00025 s⁻¹ | 0.00137 ± 0.00023 s⁻¹ | 0.00122 ± 0.00028 s⁻¹ | 5.01e-05 ± 1.5e-05 s⁻¹ | 0.000237 ± 4.5e-05 s⁻¹ | 0.000597 ± 9.9e-05 s⁻¹ | 1020 ± 260 µM
G41C G66A | 0.00127 ± 0.00038 s⁻¹ | 0.000621 ± 0.00011 s⁻¹ | 0.000851 ± 0.00016 s⁻¹ | – | 6.76e-05 ± 2.3e-05 s⁻¹ | 0.00013 ± 3.9e-05 s⁻¹ | 4000 ± 1900 µM
A42C U46A | < 1e-05 s⁻¹ | – | – | < 1e-05 s⁻¹ | – | < 1e-05 s⁻¹ | –
A42U C68U | 0.000347 ± 1.8e-05 s⁻¹ | 0.000254 ± 5.6e-05 s⁻¹ | 0.000302 ± 3e-05 s⁻¹ | – | – | 0.000108 ± 2.4e-05 s⁻¹ | 1360 ± 230 µM
G41A A42G | 0.000223 ± 4.2e-05 s⁻¹ | 0.000296 ± 4.3e-05 s⁻¹ | 0.000192 ± 1.8e-05 s⁻¹ | – | – | 8.45e-05 ± 1.3e-05 s⁻¹ | –
A42G A53C | 0.00933 ± 0.0027 s⁻¹ | 0.0112 ± 0.0032 s⁻¹ | 0.0076 ± 0.0015 s⁻¹ | 0.000286 ± 5.1e-05 s⁻¹ | 0.000666 ± 0.00018 s⁻¹ | 0.00271 ± 0.00065 s⁻¹ | 1540 ± 610 µM
G41A U46A | 0.000569 ± 0.0001 s⁻¹ | 0.000531 ± 7.8e-05 s⁻¹ | 0.000462 ± 4.9e-05 s⁻¹ | 3.02e-05 ± 1.4e-05 s⁻¹ | 4.5e-05 ± 1.2e-05 s⁻¹ | 0.000168 ± 4.6e-05 s⁻¹ | 1480 ± 630 µM
G41A U46G | 0.00092 ± 0.00015 s⁻¹ | 0.000537 ± 0.00011 s⁻¹ | 0.000747 ± 0.00018 s⁻¹ | – | 6.59e-05 ± 1.8e-05 s⁻¹ | 0.000206 ± 4.4e-05 s⁻¹ | 2030 ± 530 µM
G41A C70G | 0.000368 ± 0.00014 s⁻¹ | 0.000332 ± 4e-05 s⁻¹ | – | 4.43e-05 ± 8e-06 s⁻¹ | 6.45e-05 ± 1.1e-05 s⁻¹ | 0.000156 ± 1.6e-05 s⁻¹ | –
G41A A64G | 0.00209 ± 0.00064 s⁻¹ | 0.00071 ± 0.00016 s⁻¹ | 0.00128 ± 0.00023 s⁻¹ | – | 7.21e-05 ± 2e-05 s⁻¹ | – | 5950 ± 2800 µM
A42G U57G | 4.9e-05 ± 1.3e-06 s⁻¹ | 4.17e-05 ± 1.4e-05 s⁻¹ | 4.59e-05 ± 1.4e-05 s⁻¹ | < 1e-05 s⁻¹ | < 1e-05 s⁻¹ | – | 514 ± 77 µM
A42U C71U | 0.000154 ± 2e-05 s⁻¹ | 0.000122 ± 1.6e-05 s⁻¹ | 0.000129 ± 1.4e-05 s⁻¹ | < 1e-05 s⁻¹ | – | 4.75e-05 ± 6.4e-06 s⁻¹ | 1320 ± 400 µM
